# Source: patent US20160200782A1
# Key:
# Test in all cases: cell-based or functional assay
# ALK4(h) (human) = ALK4(h) (human) (UniProt P36896)
# Ab1(M351T)(h) (human) = Ab1(M351T)(h) (human) (UniProt P00519)
# Ab1(h) (human) = Ab1(h) (human) (UniProt P00519)
# Aurora-B(h) (human) = Aurora-B(h) (human) (UniProt Q96GD4)
# CDK5/p25(h) (human) = CDK5/p25(h) (human) (UniProt Q00535)
# CHK1(h) (human) = CHK1(h) (human) (UniProt O14757)
# CHK2(h) (human) = CHK2(h) (human) (UniProt O96017)
# CSK(h) (human) = CSK(h) (human) (UniProt P41240)
# Sequence of CSK(h) (human) (P41240 whole entry): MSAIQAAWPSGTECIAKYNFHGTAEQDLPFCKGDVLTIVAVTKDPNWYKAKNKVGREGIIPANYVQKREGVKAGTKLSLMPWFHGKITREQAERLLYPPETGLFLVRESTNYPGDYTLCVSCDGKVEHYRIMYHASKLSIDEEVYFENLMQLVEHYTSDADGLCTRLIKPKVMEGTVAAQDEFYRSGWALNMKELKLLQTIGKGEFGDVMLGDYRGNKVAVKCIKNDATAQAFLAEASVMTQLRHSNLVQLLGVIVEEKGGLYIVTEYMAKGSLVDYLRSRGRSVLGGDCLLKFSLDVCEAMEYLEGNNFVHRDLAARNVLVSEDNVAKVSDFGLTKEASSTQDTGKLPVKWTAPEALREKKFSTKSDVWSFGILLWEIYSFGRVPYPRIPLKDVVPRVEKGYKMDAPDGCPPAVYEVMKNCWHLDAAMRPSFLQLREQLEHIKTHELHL
# DRAK1(h) (human) = DRAK1(h) (human) (UniProt Q9UEE5)
# DYRK2(h) (human) = DYRK2(h) (human) (UniProt Q92630)
# EGFR(L861Q)(h) (human) = EGFR(L861Q)(h) (human) (UniProt P00533)
# EphA8(h) (human) = EphA8(h) (human) (UniProt P29322)
# EphB3(h) (human) = EphB3(h) (human) (UniProt P54753)
# Sequence of EphB3(h) (human) (P54753 581-998 limits assumed): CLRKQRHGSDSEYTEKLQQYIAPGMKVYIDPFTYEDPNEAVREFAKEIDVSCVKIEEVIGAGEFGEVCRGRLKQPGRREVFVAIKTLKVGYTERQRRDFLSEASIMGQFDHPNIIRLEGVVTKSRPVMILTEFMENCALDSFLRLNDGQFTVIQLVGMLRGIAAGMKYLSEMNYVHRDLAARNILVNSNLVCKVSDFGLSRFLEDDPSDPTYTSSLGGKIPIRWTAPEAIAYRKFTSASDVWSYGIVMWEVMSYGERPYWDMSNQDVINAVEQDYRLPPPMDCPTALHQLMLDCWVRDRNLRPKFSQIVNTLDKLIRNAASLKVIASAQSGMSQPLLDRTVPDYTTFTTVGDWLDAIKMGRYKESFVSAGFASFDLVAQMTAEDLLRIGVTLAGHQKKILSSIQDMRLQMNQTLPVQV
# Fer(h) (human) = Fer(h) (human) (UniProt P16591)
# Sequence of Fer(h) (human) (P16591 541-822 limits assumed): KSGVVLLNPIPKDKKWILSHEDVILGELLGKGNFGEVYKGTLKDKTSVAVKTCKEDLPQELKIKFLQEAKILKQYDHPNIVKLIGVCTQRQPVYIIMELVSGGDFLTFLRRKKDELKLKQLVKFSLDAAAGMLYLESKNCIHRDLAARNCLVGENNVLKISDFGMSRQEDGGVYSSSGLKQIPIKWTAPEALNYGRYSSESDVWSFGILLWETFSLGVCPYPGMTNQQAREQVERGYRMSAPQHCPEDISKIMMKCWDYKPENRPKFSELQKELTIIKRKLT
# Flt3(h) (human) = Flt3(h) (human) (UniProt P36888)
# GRK6(h) (human) = GRK6(h) (human) (UniProt P43250)
# Sequence of GRK6(h) (human) (P43250 whole entry): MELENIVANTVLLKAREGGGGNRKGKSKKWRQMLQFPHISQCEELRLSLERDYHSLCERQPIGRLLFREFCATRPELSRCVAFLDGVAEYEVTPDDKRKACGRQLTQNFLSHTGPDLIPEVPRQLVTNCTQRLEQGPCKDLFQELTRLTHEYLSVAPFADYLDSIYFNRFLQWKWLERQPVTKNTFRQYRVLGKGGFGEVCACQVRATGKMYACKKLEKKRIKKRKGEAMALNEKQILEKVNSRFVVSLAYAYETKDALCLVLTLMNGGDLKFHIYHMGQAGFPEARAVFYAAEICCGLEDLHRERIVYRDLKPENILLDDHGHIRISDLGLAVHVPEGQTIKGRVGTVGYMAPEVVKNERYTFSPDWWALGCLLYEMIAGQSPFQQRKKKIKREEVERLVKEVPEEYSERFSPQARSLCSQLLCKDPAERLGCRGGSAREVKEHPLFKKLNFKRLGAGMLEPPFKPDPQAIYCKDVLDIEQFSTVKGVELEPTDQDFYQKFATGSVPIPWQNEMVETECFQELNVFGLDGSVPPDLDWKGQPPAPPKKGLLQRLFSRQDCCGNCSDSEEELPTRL
# HIPK1(h) (human) = HIPK1(h) (human) (UniProt Q86Z02)
# Sequence of HIPK1(h) (human) (Q86Z02 158-555 limits assumed): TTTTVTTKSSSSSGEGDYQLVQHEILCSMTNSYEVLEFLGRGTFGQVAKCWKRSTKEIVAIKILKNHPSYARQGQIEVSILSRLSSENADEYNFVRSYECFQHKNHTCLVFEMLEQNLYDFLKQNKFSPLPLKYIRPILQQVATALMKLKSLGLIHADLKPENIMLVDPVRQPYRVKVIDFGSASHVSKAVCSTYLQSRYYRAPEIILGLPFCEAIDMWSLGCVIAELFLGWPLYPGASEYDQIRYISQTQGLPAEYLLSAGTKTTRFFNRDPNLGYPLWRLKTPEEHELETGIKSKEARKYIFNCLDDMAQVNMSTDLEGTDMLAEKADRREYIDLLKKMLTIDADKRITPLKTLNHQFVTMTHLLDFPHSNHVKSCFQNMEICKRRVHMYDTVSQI
# IR(h), activated (human) = IR(h), activated (human) (UniProt P06213)
# Sequence of IR(h), activated (human) (P06213 1005-1310 limits assumed): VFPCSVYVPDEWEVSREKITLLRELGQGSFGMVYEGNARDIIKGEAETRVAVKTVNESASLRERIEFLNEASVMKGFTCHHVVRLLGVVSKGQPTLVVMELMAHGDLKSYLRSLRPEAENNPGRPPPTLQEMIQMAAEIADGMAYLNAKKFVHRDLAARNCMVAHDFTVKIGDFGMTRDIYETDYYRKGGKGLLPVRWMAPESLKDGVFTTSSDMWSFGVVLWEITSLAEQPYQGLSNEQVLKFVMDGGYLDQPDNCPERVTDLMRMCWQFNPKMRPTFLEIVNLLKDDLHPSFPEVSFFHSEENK
# IRAK4(h) (human) = IRAK4(h) (human) (UniProt Q9NWZ3)
# LIMK1(h) (human) = LIMK1(h) (human) (UniProt P53667)
# Lck(h) (human) = Lck(h) (human) (UniProt P06239)
# Lyn(h) (human) = Lyn(h) (human) (UniProt P07948)
# MAPK2(h) (human) = MAPK2(h) (human) (UniProt P28482)
# MAPKAP-K3(h) (human) = MAPKAP-K3(h) (human) (UniProt Q16644)
# MARK1(h) (human) = MARK1(h) (human) (UniProt Q9P0L2)
# MEK1(h) (human) = MEK1(h) (human) (UniProt Q02750)
# MELK(h) (human) = MELK(h) (human) (UniProt Q14680)
# MKK6(h) (human) = MKK6(h) (human) (UniProt P52564)
# Met(Y1248C)(h) (human) = Met(Y1248C)(h) (human) (UniProt P08581)
# MuSK(h) (human) = MuSK(h) (human) (UniProt O15146)
# NEK2(h) (human) = NEK2(h) (human) (UniProt P51955)
# Sequence of NEK2(h) (human) (P51955 whole entry): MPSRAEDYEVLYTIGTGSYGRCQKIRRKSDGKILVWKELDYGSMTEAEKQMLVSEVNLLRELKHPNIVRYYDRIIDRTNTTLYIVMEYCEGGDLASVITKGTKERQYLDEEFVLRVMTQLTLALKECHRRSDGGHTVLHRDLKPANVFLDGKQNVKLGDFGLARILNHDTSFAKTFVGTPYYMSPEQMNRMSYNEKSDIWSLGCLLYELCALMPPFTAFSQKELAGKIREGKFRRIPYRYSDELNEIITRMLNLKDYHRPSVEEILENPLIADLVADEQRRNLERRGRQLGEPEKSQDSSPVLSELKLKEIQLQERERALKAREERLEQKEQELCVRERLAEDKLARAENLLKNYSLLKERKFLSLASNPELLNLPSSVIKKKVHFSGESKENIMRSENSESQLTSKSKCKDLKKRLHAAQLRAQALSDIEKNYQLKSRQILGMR
# NEK3(h) (human) = NEK3(h) (human) (UniProt P51956)
# Sequence of NEK3(h) (human) (P51956 whole entry): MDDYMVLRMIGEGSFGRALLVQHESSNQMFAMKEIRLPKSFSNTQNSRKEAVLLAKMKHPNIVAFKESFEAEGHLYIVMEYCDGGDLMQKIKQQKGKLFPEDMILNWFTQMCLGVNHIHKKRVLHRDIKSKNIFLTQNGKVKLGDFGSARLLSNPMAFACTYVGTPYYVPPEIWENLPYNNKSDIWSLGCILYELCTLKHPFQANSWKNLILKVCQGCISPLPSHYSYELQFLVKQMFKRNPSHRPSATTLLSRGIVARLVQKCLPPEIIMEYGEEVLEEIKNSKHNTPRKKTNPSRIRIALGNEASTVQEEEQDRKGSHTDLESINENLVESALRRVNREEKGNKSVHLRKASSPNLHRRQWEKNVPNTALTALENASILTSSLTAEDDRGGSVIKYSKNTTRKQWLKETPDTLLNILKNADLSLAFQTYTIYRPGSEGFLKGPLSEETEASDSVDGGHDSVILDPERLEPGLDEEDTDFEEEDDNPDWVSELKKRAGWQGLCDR
# NEK7(h) (human) = NEK7(h) (human) (UniProt Q8TDX7)
# PKG1α(h) (human) = PKG1α(h) (human) (UniProt Q13976)
# PRAK(h) (human) = PRAK(h) (human) (UniProt Q8IW41)
# PTK5(h) (human) = PTK5(h) (human) (UniProt P42685)
# PhKγ2(h) (human) = PhKγ2(h) (human) (UniProt P15735)
# Pim-1(h) (human) = Pim-1(h) (human) (UniProt P11309)
# Ros(h) (human) = Ros(h) (human) (UniProt P08922)
# Rsk4(h) (human) = Rsk4(h) (human) (UniProt Q9UK32)
# Sequence of Rsk4(h) (human) (Q9UK32 whole entry): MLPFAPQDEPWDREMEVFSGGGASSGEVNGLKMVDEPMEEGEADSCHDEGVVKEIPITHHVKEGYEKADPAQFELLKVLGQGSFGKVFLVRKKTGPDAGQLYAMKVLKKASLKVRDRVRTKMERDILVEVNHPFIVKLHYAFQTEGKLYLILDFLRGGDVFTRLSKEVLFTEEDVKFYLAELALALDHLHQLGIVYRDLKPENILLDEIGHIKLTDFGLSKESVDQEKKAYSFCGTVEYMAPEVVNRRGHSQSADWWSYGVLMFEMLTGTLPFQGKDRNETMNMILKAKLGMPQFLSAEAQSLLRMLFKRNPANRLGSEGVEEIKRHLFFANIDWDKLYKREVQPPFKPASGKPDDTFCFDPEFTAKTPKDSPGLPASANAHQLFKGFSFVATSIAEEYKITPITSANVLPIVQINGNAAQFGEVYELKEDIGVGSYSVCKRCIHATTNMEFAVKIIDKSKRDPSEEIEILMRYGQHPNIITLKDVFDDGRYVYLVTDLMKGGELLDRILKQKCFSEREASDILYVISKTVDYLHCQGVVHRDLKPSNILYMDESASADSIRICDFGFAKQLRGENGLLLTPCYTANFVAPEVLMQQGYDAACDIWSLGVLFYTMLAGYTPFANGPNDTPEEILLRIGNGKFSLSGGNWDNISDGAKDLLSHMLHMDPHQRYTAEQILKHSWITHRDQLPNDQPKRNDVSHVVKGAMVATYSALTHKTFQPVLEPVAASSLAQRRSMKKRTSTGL
# SAPK2a(h) (human) = SAPK2a(h) (human) (UniProt Q16539)
# Sequence of SAPK2a(h) (human) (Q16539 whole entry): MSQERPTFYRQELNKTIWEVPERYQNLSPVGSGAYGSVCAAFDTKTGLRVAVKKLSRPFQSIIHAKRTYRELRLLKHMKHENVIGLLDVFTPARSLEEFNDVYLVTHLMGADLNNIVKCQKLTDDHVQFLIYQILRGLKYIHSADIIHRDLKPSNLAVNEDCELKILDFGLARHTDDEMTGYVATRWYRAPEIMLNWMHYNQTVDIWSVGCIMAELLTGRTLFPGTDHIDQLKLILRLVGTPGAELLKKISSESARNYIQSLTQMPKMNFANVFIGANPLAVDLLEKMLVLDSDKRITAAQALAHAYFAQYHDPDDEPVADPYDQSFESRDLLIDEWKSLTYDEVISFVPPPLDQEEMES
# SGK3(h) (human) = SGK3(h) (human) (UniProt Q96BR1)
# STK33(h) (human) = STK33(h) (human) (UniProt Q9BYT3)
# Snk(h) (human) = Snk(h) (human) (UniProt Q9NYY3)
# Src(T341M)(h) (human) = Src(T341M)(h) (human) (UniProt P12931)
# TBK1(h) (human) = TBK1(h) (human) (UniProt Q9UHD2)
# TSSK2(h) (human) = TSSK2(h) (human) (UniProt Q96PF2)
# Tie2(h) (human) = Tie2(h) (human) (UniProt Q02763)
# Txk(h) (human) = Txk(h) (human) (UniProt P42681)
# ULK2(h) (human) = ULK2(h) (human) (UniProt Q8IYT8)
# WNK3(h) (human) = WNK3(h) (human) (UniProt Q9BYP7)
# ZIPK(h) (human) = ZIPK(h) (human) (UniProt O43293)
# c-RAF(h) (human) = c-RAF(h) (human) (UniProt P04049)
# cKit(D816V)(h) (human) = cKit(D816V)(h) (human) (UniProt P10721)
# Sequence of cKit(D816V)(h) (human) (P10721 544-976 D816V limits assumed): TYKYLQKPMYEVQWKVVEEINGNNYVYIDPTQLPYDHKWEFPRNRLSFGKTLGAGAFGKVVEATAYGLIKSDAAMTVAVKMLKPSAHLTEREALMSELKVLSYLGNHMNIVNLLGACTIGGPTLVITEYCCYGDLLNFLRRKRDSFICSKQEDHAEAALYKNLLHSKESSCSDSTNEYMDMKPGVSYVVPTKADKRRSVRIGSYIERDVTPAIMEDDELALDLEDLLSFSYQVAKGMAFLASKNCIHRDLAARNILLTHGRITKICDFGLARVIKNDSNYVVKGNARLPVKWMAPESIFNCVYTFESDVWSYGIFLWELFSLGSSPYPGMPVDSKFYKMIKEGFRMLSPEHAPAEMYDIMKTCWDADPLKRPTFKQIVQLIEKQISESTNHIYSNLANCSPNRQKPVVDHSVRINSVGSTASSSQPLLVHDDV
# eEF-2K(h) (human) = eEF-2K(h) (human) (UniProt O00418)
# p70S6K(h) (human) = p70S6K(h) (human) (UniProt P23443)
substance,measurement,setting,value
MMI-0200 (peptide),% activity,ALK4(h) (human),152%
same,% activity,Ab1(M351T)(h) (human),119%
same,% activity,Ab1(h) (human),107%
same,% activity,Aurora-B(h) (human),166%
same,% activity,CDK5/p25(h) (human),97%
same,% activity,CHK1(h) (human),115%
same,% activity,CHK2(h) (human),105%
same,% activity,CSK(h) (human),33%
same,% activity,DRAK1(h) (human),34%
same,% activity,DYRK2(h) (human),142%
same,% activity,EGFR(L861Q)(h) (human),74%
same,% activity,EphA8(h) (human),133%
same,% activity,EphB3(h) (human),128%
same,% activity,Fer(h) (human),101%
same,% activity,Flt3(h) (human),99%
same,% activity,GRK6(h) (human),132%
same,% activity,HIPK1(h) (human),115%
same,% activity,"IR(h), activated (human)",105%
same,% activity,IRAK4(h) (human),110%
same,% activity,LIMK1(h) (human),109%
same,% activity,Lck(h) (human),113%
same,% activity,Lyn(h) (human),98%
same,% activity,MAPK2(h) (human),105%
same,% activity,MAPKAP-K3(h) (human),39%
same,% activity,MARK1(h) (human),102%
same,% activity,MEK1(h) (human),116%
same,% activity,MELK(h) (human),59%
same,% activity,MKK6(h) (human),98%
same,% activity,Met(Y1248C)(h) (human),141%
same,% activity,MuSK(h) (human),106%
same,% activity,NEK2(h) (human),97%
same,% activity,NEK3(h) (human),100%
same,% activity,NEK7(h) (human),96%
same,% activity,PKG1α(h) (human),70%
same,% activity,PRAK(h) (human),115%
same,% activity,PTK5(h) (human),108%
same,% activity,PhKγ2(h) (human),86%
same,% activity,Pim-1(h) (human),18%
same,% activity,Ros(h) (human),86%
same,% activity,Rsk4(h) (human),125%
same,% activity,SAPK2a(h) (human),107%
same,% activity,SGK3(h) (human),58%
same,% activity,STK33(h) (human),98%
same,% activity,Snk(h) (human),109%
same,% activity,Src(T341M)(h) (human),56%
same,% activity,TBK1(h) (human),98%
same,% activity,TSSK2(h) (human),91%
same,% activity,Tie2(h) (human),53%
same,% activity,Txk(h) (human),98%
same,% activity,ULK2(h) (human),132%
same,% activity,WNK3(h) (human),97%
same,% activity,ZIPK(h) (human),67%
same,% activity,c-RAF(h) (human),115%
same,% activity,cKit(D816V)(h) (human),118%
same,% activity,eEF-2K(h) (human),136%
same,% activity,p70S6K(h) (human),84%
